From publication PMC11667166, “O-glycosylation is essential for cell surface expression of the transcobalamin receptor CD320” (The Journal of Biological Chemistry, 2024)

Biological target: the molecule itself
Assay: co-IP; CD320-FLAG and CD320-V5 co-expressed in HEK293 cells; immunoprecipitation with anti-FLAG or anti-V5 antibody, western blotting with anti-FLAG or anti-V5 under non-reducing conditions (~350-kDa band)

B1: human CD320 (transcobalamin receptor), wild type, with an N-terminal FLAG or V5 tag (receptor, UniProt Q9NPF0-1 36-282, looked up)
chain: SPLSTPTSAQAAGPSSGSCPPTKFQCRTSGLCVPLTWRCDRDLDCSDGSDEEECRIEPCTQKGQCPPPPGLPCPCTGVSDCSGGTDKKLRNCSRLACLAGELRCTLSDDCIPLTWRCDGHPDCPDSSDELGCGTNEILPEGDATTMGPPVTLESVTSLRNATTMGPPVTLESVPSVGNATSSSAGDQSGSPTAYGVIAAAAVLSASLVTATLLLLSWLRAQERLRPLGLLVAMKESLLLSEQKTSLP
modifications: N-glycans at N126, N195 and N213; terminally sialylated O-glycans (the ~70-kDa proteoform)
notes: CD320 (transcobalamin receptor), human, NCBI NP_057663.1; wild type; type I transmembrane protein with signal peptide, two LDLR repeats, EGF-like module, transmembrane domain and cytoplasmic segment; Two differently tagged copies of the same protein (one with N-terminal FLAG, one with N-terminal V5) were co-expressed; each chain carries only one of the two tags; The ~350-kDa complex is seen only …
stoichiometry N: ~5
